Test results published in patent publication US9951373B2, “Oplophorus-derived luciferases, novel coelenterazine substrates, and methods of use” (Promega Corporation, priority 2010, dated 2018).

Columns and labels:
HEK293 cells = assay: Luminescence of luciferases in lysed HEK293 cells (codon optimization); type: cell-based, human; details: normalized
Description: Codon optimized versions of IV (“IV opt” (SEQ ID NO: 22) and “IV optB” (SEQ ID NO: 23)) and 9B8 (“9B8 opt” (SEQ ID NO: 24) and “9B8 optB” (SEQ ID NO: 25)) were generated and cloned into pF4Ag by methods known in the art. HEK293 cells were plated in 96-well plates at 15,000 cells/well and grown overnight at 37° C. The following day, the cells were transiently transfected in 6 well replicates using TRANSIT®-LT1 Transfection Reagent (Mirus Bio) with 100 ng of plasmid DNA encoding the codon optimized versions in pF4Ag and grown overnight at 37° C. HEK293 cells were also transfected with either pGL4.13 (Luc2/SV40) (Paguio et al., “pGL4 Vectors: A New Generation of Luciferase Reporter Vectors” Promega Notes, 89:7-10 (2005)) or pGL4.73 (hRL/SV40) (Id.) to normalize for differences in transfection efficiency. Ten ng/transfection or 10% of the total DNA transfected was used.
The OgLuc variants had higher luminescence compared to Luc2 and hRL.

[1] = tested on: antioxidant response element (ARE); assay: Transcriptional reporter, reverse transfection, ARE in HEK293 cells; type: cell-based, human; details: 100 ng DNA, 24 h
Description: HEK293 cells were trypsinized (T75 flask, 3 mL trypsin) and resuspended in […] (approximately 8.9×10^6 total cells) in medium containing DMEM+10% FBS+1×NEAA. Each transcriptional reporter was prepared for transfection by mixing 1.2 mL OPTI-MEM®, 12 μL transcription reporter DNA (100 ng) and 36 μL FUGENE® HD transfection reagent together and incubated at room temperature for 35 min. Following incubation, 624 μL of the transfection/reporter DNA mixture was added to 12 mL of cell suspension and mixed by inversion. After mixing, 100 μL of the cell/DNA mixture was added to wells of a 96-well plate (2 constructs/plate). The cells were incubated at 37° C. for 22 hrs. Tert-butylhydroquinone (a Nrf2 stabilizer; tBHQ; 1 μM (“baseline”) or 20 μM) or sulphoraphane, (an organosulfer antioxidant known to activate Nrf2; 1 μM (“baseline”) or 20 μM) in OPTI-MEM® was added to each well and incubated at 37° C. for 24 hrs. Cells were lysed with 100 μL lytic reagent as described above for the forward transfection. Luminescence was measured on a GLOMAX® Luminometer.

[2] = Thermal stability of OgLuc variants at 60° C.; type: physicochemical; details: luminescence at start of incubation (t=0), PBI-3939
Description: Aliquots were removed at different time-points and placed on dry ice to freeze the samples. […] Luminescence was measured on a GLOMAX® luminometer (Promega Corp.).
The thermal stability of the variants at 60° C. was examined as described above, except the assay buffer contained 100 mM MES pH 6.0 instead of HEPES.

[3] = tested on: cAMP response element (CRE); assay: Transcriptional reporter, forward transfection, CRE in HEK293 cells; type: cell-based, human; details: 3 h; for baseline: 10 nM FSK
Description: HEK293 cells were plated at 15,000 cells/well in six 96-well tissue culture plates. Cells were grown in 100 μL of DMEM+10% FBS+1× non-essential amino acids (NEAA) and incubated overnight at 37° C. The cells were transiently transfected with either 10 ng or 100 ng plasmid DNA/well of pGL4.29 9B8 opt, pGL4.29 9B8 opt-P, or pGL4.29. Plasmid DNA was mixed with 850 μL of OPTI-MEMO (Invitrogen) and 32.4 μL of FUGENE® HD transfection reagent (Promega Corp.) and incubated at room temperature for 10 min. Eight μL of the transfection/reporter DNA mixture was added to the appropriate wells (2 constructs/plate). Cells were incubated for 4 hrs at 37° C. The medium was replaced with OPTI-MEM®+0.5% dialyzed FBS+1×NEAA+1× sodium pyruvate+1× Penn-Strep and incubated overnight at 37° C.
A lytic reagent containing 100 mM MES pH 6.1, 1 mM CDTA, 150 mM KCl, 35 mM thiourea, 2 mM DTT, 0.25% TERGITOLO NP-9 (v/v), 0.025% MAZUO DF 204, and 20 μM PBI-3939 was added to the cells containing pGL4.29 9B8 opt or pGL4.29 9B8 opt-P and allowed to incubated for 10 min at room temperature (100 μL lytic reagent added to 100 μL cells). ONE-GLO™ assay reagent (Promega Corp.) was added to cells containing pGL4.29 and used according to the manufacturer's protocol (100 μL reagent added to 100 μL cells). Luminescence was measured on a GLOMAX® Luminometer.

CRE [4] = assay: Transcriptional reporter, bulk transfection, CRE in NIH3T3 cells; type: cell-based; details: NIH3T3, 10 nM FSK, 4 h
Description: (§1) The transcriptional reporter containing HRE and 9B8 opt-P was used in the bulk transfection of HeLa cells
(§2) HEK293, NIH3T3, or HeLa cells were plated to a single well of a 6-well tissue culture plate the day before transfection at a density of 4.5×10^5 cells/well in 3 mL complete medium (DMEM+10% FBS+1×NEAA+1× sodium pyruvate) for HEK293 cells, 3×10^5 cells/well in 3 mL complete medium (DMEM+10% fetal calf serum (FCS)+1×NEAA+1× sodium pyruvate) for NIH3T3 cells, or 9.9×10^5 cells/well in 3 mL complete medium (DMEM+10% FBS+1×NEAA) for HeLa cells. Cells were grown overnight at 37° C.
(§3) 3,300 ng of reporter plasmid DNA in 155 μL OPTI-MEM® was mixed with 9.9 μL FUGENE® HD transfection reagent, vortexed briefly, and incubated at room temperature for 10 min. The CRE transcriptional reporters were used to transfect HEK293 and NIH3T3 cells. The HRE transcriptional reporters were used to transfect HeLa cells. The reporter mixture was added to cells and mixed by gentle rocking followed by incubation at 37° C. for 6 hrs (HEK293 and NIH3T3) or 3 hrs (HeLa). […]
(§4) FSK (CRE stimulator) or 17-AAG (HRE stimulator; 17-Allylamino-demethoxy geldanamycin) in OPTI-MEM® was added to the cells (10 nM or 10 μM final concentration for FSK; 1 nM or 1 μM final concentration for 17-AAG) and incubated at 37° C. for 4 hrs (FSK) or 6 hrs (17-AAG). […] Luminescence was measured on a GLOMAX® Luminometer.

CRE [5] = assay: Transcriptional reporter, bulk transfection, CRE in HEK293 cells; type: cell-based, human; details: HEK293, 10 nM FSK, 4 h
Description: as §1, §2, §3, §4

[6] = tested on: cAMP-response element (CRE); assay: cAMP transcriptional reporter in HEK293 cells; details: for fold-induction: FSK 5 hrs
[7] = Brightness of purified OgLuc variant compared to firefly luciferase; type: biochemical
Description: The 9B8 OgLuc variant was overexpressed and purified as described in Example 33. Reactions between diluted enzyme and substrate were performed using the following 2× buffer/assay reagent: 100 mM MES pH 6.0, 1 mM CDTA, 150 mM KCl, 35 mM thiourea, 2 mM DTT, 0.25% TERGITOL® NP-9 (v/v), 0.025% MAZU® DF 204, 10 mg/mL 2-hydroxy-β-cyclodextrin, and 20 μM PBI-3939. The final assay concentrations of purified enzyme and substrate were 0.5 pM and 10 μM, respectively. In parallel, reactions between diluted purified firefly luciferase (i.e., QUANTILUM® Recombinant Luciferase (Promega Corp.)) and luciferin were analyzed. The assay buffer/reagent for the firefly luciferase reaction was BRIGHT-GLO™, and the final assay concentrations were 0.5 pM enzyme and 500 μM luciferin. As the buffers/reagents for each reaction were known to provide “glow” kinetics, a 15 min time point was used to collect luminescence data.

B1: Luc2: a firefly luciferase (SEQ ID NOs: 28 and 29) (protein, listed as Photinus pyralis)
chain: MEDAKNIKKGPAPFYPLEDGTAGEQLHKAMKRYALVPGTIAFTDAHIEVDITYAEYFEMSVRLAEAMKRYGLNTNHRIVVCSENSLQFFMPVLGALFIGVAVAPANDIYNERELLNSMGISQPTVVFVSKKGLQKILNVQKKLPIIQKIIIMDSKTDYQGFQSMYTFVTSHLPPGFNEYDFVPESFDRDKTIALIMNSSGSTGLPKGVALPHRTACVRFSHARDPIFGNQIIPDTAILSVVPFHHGFGMFTTLGYLICGFRVVLMYRFEEELFLRSLQDYKIQSALLVPTLFSFFAKSTLIDKYDLSNLHEIASGGAPLSKEVGEAVAKRFHLPGIRQGYGLTETTSAILITPEGDDKPGAVGKVVPFFEAKVVDLDTGKTLGVNQRGELCVRGPMIMSGYVNNPEATNALIDKDGWLHSGDIAYWDEDEHFFIVDRLKSLIKYKGYQVAPAELESILLQHPNIFDAGVAGLPDDDAGELPAAVVVLEHGKTMTEKEIVDYVASQVTTAKKLRGGVVFVDEVPKGLTGKLDARKIREILIKAKKGGKIAV
Q: Which “fold higher luminescence than hRL” value (HEK293 cells) does the source give for B1 here?
A: approximately 14 fold

B2: 9B8 opt: codon optimized version of the 9B8 variant (SEQ ID NO: 24) (protein)
chain: MVFTLEDFVGDWRQTAGYNLDQVLEQGGLSSLFQKLGVSVTPIQKIVLSGENGLKIDIHVIIPYEGLSGYQMGQIEKIFKVVYPVDDHHFKVILHYGTLVIDGVTPNMIDYFGRPYEGIAVFDGKKITVTGTLWNGNKIIDERLINPDGSLLFRVTINGVTGWRLCERILA
Q: Which “RLU (20 μM sulphoraphane)” value [1] does the source give for B2 here?
A: 89,600,000 RLU

Q: And the “RLU (20 μM tBHQ)” value [1]?
A: 120,000,000 RLU

Q: And the baseline ([1]; 1 μM sulphoraphane)?
A: 15,600,000 RLU

Q: What about the baseline ([1]; 1 μM tBHQ) of the same molecule?
A: 15,100,000 RLU

Q: What about the RLU [2] of the same molecule?
A: 23,283,252,000 RLU

Q: And the baseline ([3]; 10 ng DNA)?
A: 192810 RLU

Q: And the “RLU (10 µM FSK)” value ([3]; 10 ng DNA)?
A: 12,926,465 RLU

Q: And the Response ([3]; 10 ng DNA)?
A: 67

Q: What about the baseline ([3]; 100 ng DNA) of the same molecule?
A: 3,078,418 RLU

Q: What about the “RLU (10 µM FSK)” value ([3]; 100 ng DNA) of the same molecule?
A: 104,687,723 RLU

Q: What about the Response ([3]; 100 ng DNA) of the same molecule?
A: 34

Q: What about the baseline (CRE [4]) of the same molecule?
A: 9,187,000 RLU

Q: What about the baseline (CRE [5]) of the same molecule?
A: 39,700,000 RLU

Q: What about the fold-induction ([6]; 30 ng of DNA for transfection) of the same molecule?
A: 360

Q: And the fold-induction ([6]; 100 ng of DNA for transfection)?
A: 109

Q: And the “induced luminescence higher than Luc2 transcriptional reporter” value ([6]; FSK induced)?
A: approximately 1.5 logs

Q: And the “induced luminescence higher than induced Renilla transcriptional reporter” value ([6]; FSK induced)?
A: approximately 2.5 logs

Q: What about the “fold brighter than QUANTILUM Recombinant Luciferase with BRIGHT-GLO” value [7] of the same molecule?
A: approximately 8 fold

Q: What about the luminescence ([7]; 0.5 pM purified enzyme, 15 min, 10 μM PBI-3939 or BRIGHT-GLO with 500 μM luciferin) of the same molecule?
A: 19,200 RLU
